Source: US20050142135A1, “Agents and methods for modulating interactions between gonadotropin hormones and receptors” (University of Kentucky Research Foundation, priority 2003, published 2005)
Blank lines part the entries; values can stand above or below the molecule they belong to.

What was measured:
[1] = tested on: human FSHR; test: ^125I-FSH binding to wild type and mutant FSH receptors on intact stably transfected HEK 293 cells; settings: for FSH binding / Kd compared with the wild type receptor, in words: intact HEK 293 cells
Method: (§1) Mutant FSHR cDNAs were prepared in the pSELECT vector using the Altered Sites Mutagenesis system (Promega), sequenced on a Beckman CEQ 2000XL capillary sequencer, subcloned into pcDNA3 (Invitrogen), and sequenced again to verify mutation sequences. […] Wild type and mutant receptor constructs were transfected into HEK 293 cells by the calcium phosphate method as previously described. Stable cell lines were established in minimum essential medium containing 10% horse serum and 500 μg/ml of G418. These cells were used for hormone binding, cAMP production. All assays were carried out in duplicate and repeated 4-5 times, and means±S.D. were calculated.
(§2) The Kd values were determined by Scatchard plots. For intracellular cAMP assay, cells were washed twice with Dulbecco's modified Eagle's medium and incubated in the medium containing 0.1 μg/ml isobutylmethylxanthine for 15 mm. Increasing concentrations of FSH were then added and incubation was continued for 45 mm at 37° C. After removing the medium, the cells were rinsed once with fresh medium without isobutylmethylxanthine, lysed in 70% ethanol, freeze-thawed in liquid nitrogen, and scraped.
Each mutant human FSHR cDNA was prepared in a pSELECT vector using the non-PCR based Altered Sites Mutagenesis System (Promega), sequenced on a Beckman CEQ 2000XL capillary sequencer and subcloned into pcDNA3 (Invitrogen) as described. After subcloning pcDNA3 the mutant cDNAs were sequenced again. Plasmids were transfected into human embryonic kidney (HEK) 293 cells by the calcium phosphate method. Stable cell lines were established in minimum essential medium containing 10% horse serum and 500 μg/ml of G-418, and then used for hormone binding and cAMP assay. All assays were carried out in duplicate and repeated 4-6 times. Means and standard variations were calculated.
(§3) Human FSH (the National Hormone and Pituitary Program) was radioiodinated as previously described for radioiodination of hCG. […] The Kd values were determined by Scatchard plots. Truncated exodomain was solubilized in Nonidet P-40 and assayed for hormone binding as described previously. For intracellular cAMP assay, cells were washed twice with Dulbecco's modified Eagle's media and incubated in the media containing isobutylmethylxanthine (0.1 mg/ml) for 15 minutes. Increasing concentrations of FSH were then added and the incubation was continued for 45 minutes at 37° C. After removing the media, the cells were rinsed once with fresh media without isobutylmethylxanthine, lysed in 70% ethanol, freeze-thawed in liquid nitrogen, and scraped. […] Exoloop 3 of FSHR was modeled based on the crystal structure of rhodopsin as a template.

[2] = tested on: human FSHR; test: FSH dependent intracellular cAMP assay, wild type and mutant FSHR in HEK 293 cells; assay type: cell-based; settings: for FSH dependent cAMP induction / EC50 compared with the wild type receptor, in words: HEK 293 cells
Method: as §1, §2, §3

B1: R^11A: human FSHR with Ala substituted for R11 (protein)
chain: CHHRICHCSNAVFLCQESKVTEIPSDLPRNAIELRFVLTKLRVIQKGAFSGFGDLEKIEISQNDVLEVIEADVFSNLPKLHEIRIEKANNLLYINPEAFQNLPNLQYLLISNTGIKHLPDVHKIHSLQKVLLDIQDNINIHTIERNSFVGLSFESVILWLNKNGIQEIHNCAFNGTQLDELNLSDNNNLEELPNDVFHGASGPVILDISRTRIHSLPSYGLENLKKLRARSTYNLKKLPTLEKLVALMEASLTYPSHCCAFANWRRQISELHPICNKSILRQEVDYMTQARGQRSSLAEDNESSYSRGFDMTYTEFDYDLCNEVVDVTCSPKPDAFNPCEDIMGYNILRVLIWFISILAITGNIIVLVILTTSQYKLTVPRFLMCNLAFADLCIGIYLLLIASVDIHTKSQYHNYAIDWQTGAGCDAAGFFTVFASELSVYTLTAITLERWHTITHAMQLDCKVQLRHAASVMVMGWIFAFAAALFPIFGISSYMKVSICLPMDIDSPLSQLYVMSLLVLNVLAFVVICGCYIHIYLTVRNPNIVSSSSDTRIAKRMAMLIFTDFLCMAPISFFAISASLKVPLITVSKAKILLVLFHPINSCANPFLYAIFTKNFRRDFFILLSKCGCYEMQAQIYRTETSSTVHNTHPRNGHCSSAPRVTSGSTYILVPLSHLAQN
FSH binding / Kd compared with the wild type receptor, in words [1]: improved hormone binding
FSH binding / Kd compared with the wild type receptor, in words ([1]; listed as FSHR^R11A): lower than the wild type value

B2: I^23A: human FSHR with Ala substituted for I23 (protein)
chain: CHHRICHCSNRVFLCQESKVTEAPSDLPRNAIELRFVLTKLRVIQKGAFSGFGDLEKIEISQNDVLEVIEADVFSNLPKLHEIRIEKANNLLYINPEAFQNLPNLQYLLISNTGIKHLPDVHKIHSLQKVLLDIQDNINIHTIERNSFVGLSFESVILWLNKNGIQEIHNCAFNGTQLDELNLSDNNNLEELPNDVFHGASGPVILDISRTRIHSLPSYGLENLKKLRARSTYNLKKLPTLEKLVALMEASLTYPSHCCAFANWRRQISELHPICNKSILRQEVDYMTQARGQRSSLAEDNESSYSRGFDMTYTEFDYDLCNEVVDVTCSPKPDAFNPCEDIMGYNILRVLIWFISILAITGNIIVLVILTTSQYKLTVPRFLMCNLAFADLCIGIYLLLIASVDIHTKSQYHNYAIDWQTGAGCDAAGFFTVFASELSVYTLTAITLERWHTITHAMQLDCKVQLRHAASVMVMGWIFAFAAALFPIFGISSYMKVSICLPMDIDSPLSQLYVMSLLVLNVLAFVVICGCYIHIYLTVRNPNIVSSSSDTRIAKRMAMLIFTDFLCMAPISFFAISASLKVPLITVSKAKILLVLFHPINSCANPFLYAIFTKNFRRDFFILLSKCGCYEMQAQIYRTETSSTVHNTHPRNGHCSSAPRVTSGSTYILVPLSHLAQN
EC50 value of cAMP induction, fold higher than wild type ([2]; FSH dependent cAMP): 23 fold
maximal cAMP level, fold lower than wild type ([2]; FSH dependent cAMP): 2.6 fold

B4: F^13A: human FSHR with Ala substituted for F13 (protein)
chain: CHHRICHCSNRVALCQESKVTEIPSDLPRNAIELRFVLTKLRVIQKGAFSGFGDLEKIEISQNDVLEVIEADVFSNLPKLHEIRIEKANNLLYINPEAFQNLPNLQYLLISNTGIKHLPDVHKIHSLQKVLLDIQDNINIHTIERNSFVGLSFESVILWLNKNGIQEIHNCAFNGTQLDELNLSDNNNLEELPNDVFHGASGPVILDISRTRIHSLPSYGLENLKKLRARSTYNLKKLPTLEKLVALMEASLTYPSHCCAFANWRRQISELHPICNKSILRQEVDYMTQARGQRSSLAEDNESSYSRGFDMTYTEFDYDLCNEVVDVTCSPKPDAFNPCEDIMGYNILRVLIWFISILAITGNIIVLVILTTSQYKLTVPRFLMCNLAFADLCIGIYLLLIASVDIHTKSQYHNYAIDWQTGAGCDAAGFFTVFASELSVYTLTAITLERWHTITHAMQLDCKVQLRHAASVMVMGWIFAFAAALFPIFGISSYMKVSICLPMDIDSPLSQLYVMSLLVLNVLAFVVICGCYIHIYLTVRNPNIVSSSSDTRIAKRMAMLIFTDFLCMAPISFFAISASLKVPLITVSKAKILLVLFHPINSCANPFLYAIFTKNFRRDFFILLSKCGCYEMQAQIYRTETSSTVHNTHPRNGHCSSAPRVTSGSTYILVPLSHLAQN
FSH dependent cAMP induction / EC50 compared with the wild type receptor, in words [2]: lower than the wild type value

B6: del: human FSHR deletion mutant, L583 deleted (protein, UniProt P23945 18-695, looked up, variant L583*)
Follicle-stimulating hormone …: CHHRICHCSNRVFLCQESKVTEIPSDLPRNAIELRFVLTKLRVIQKGAFSGFGDLEKIEISQNDVLEVIEADVFSNLPKLHEIRIEKANNLLYINPEAFQNLPNLQYLLISNTGIKHLPDVHKIHSLQKVLLDIQDNINIHTIERNSFVGLSFESVILWLNKNGIQEIHNCAFNGTQLDELNLSDNNNLEELPNDVFHGASGPVILDISRTRIHSLPSYGLENLKKLRARSTYNLKKLPTLEKLVALMEASLTYPSHCCAFANWRRQISELHPICNKSILRQEVDYMTQARGQRSSLAEDNESSYSRGFDMTYTEFDYDLCNEVVDVTCSPKPDAFNPCEDIMGYNILRVLIWFISILAITGNIIVLVILTTSQYKLTVPRFLMCNLAFADLCIGIYLLLIASVDIHTKSQYHNYAIDWQTGAGCDAAGFFTVFASELSVYTLTAITLERWHTITHAMQLDCKVQLRHAASVMVMGWIFAFAAALFPIFGISSYMKVSICLPMDIDSPLSQLYVMSLLVLNVLAFVVICGCYIHIYLTVRNPNIVSSSSDTRIAKRMAMLIFTDFCMAPISFFAISASLKVPLITVSKAKILLVLFHPINSCANPFLYAIFTKNFRRDFFILLSKCGCYEMQAQIYRTETSSTVHNTHPRNGHCSSAPRVTSGSTYILVPLSHLAQN
improvement of hormone binding affinity (decrease of Kd) compared with wild type ([1]; FSH binding, mutant versus wild type FSHR): more than 4 fold

Other lines, results leading:

FSH dependent cAMP induction / EC50 compared with the wild type receptor, in words [2]: lower than the wild type value
B3: S^9A: human FSHR with Ala substituted for S9 (protein)
chain: CHHRICHCANRVFLCQESKVTEIPSDLPRNAIELRFVLTKLRVIQKGAFSGFGDLEKIEISQNDVLEVIEADVFSNLPKLHEIRIEKANNLLYINPEAFQNLPNLQYLLISNTGIKHLPDVHKIHSLQKVLLDIQDNINIHTIERNSFVGLSFESVILWLNKNGIQEIHNCAFNGTQLDELNLSDNNNLEELPNDVFHGASGPVILDISRTRIHSLPSYGLENLKKLRARSTYNLKKLPTLEKLVALMEASLTYPSHCCAFANWRRQISELHPICNKSILRQEVDYMTQARGQRSSLAEDNESSYSRGFDMTYTEFDYDLCNEVVDVTCSPKPDAFNPCEDIMGYNILRVLIWFISILAITGNIIVLVILTTSQYKLTVPRFLMCNLAFADLCIGIYLLLIASVDIHTKSQYHNYAIDWQTGAGCDAAGFFTVFASELSVYTLTAITLERWHTITHAMQLDCKVQLRHAASVMVMGWIFAFAAALFPIFGISSYMKVSICLPMDIDSPLSQLYVMSLLVLNVLAFVVICGCYIHIYLTVRNPNIVSSSSDTRIAKRMAMLIFTDFLCMAPISFFAISASLKVPLITVSKAKILLVLFHPINSCANPFLYAIFTKNFRRDFFILLSKCGCYEMQAQIYRTETSSTVHNTHPRNGHCSSAPRVTSGSTYILVPLSHLAQN

FSH dependent cAMP induction / EC50 compared with the wild type receptor, in words [2]: lower than the wild type value
B5: V^12A: human FSHR with Ala substituted for V12 (protein)
chain: CHHRICHCSNRAFLCQESKVTEIPSDLPRNAIELRFVLTKLRVIQKGAFSGFGDLEKIEISQNDVLEVIEADVFSNLPKLHEIRIEKANNLLYINPEAFQNLPNLQYLLISNTGIKHLPDVHKIHSLQKVLLDIQDNINIHTIERNSFVGLSFESVILWLNKNGIQEIHNCAFNGTQLDELNLSDNNNLEELPNDVFHGASGPVILDISRTRIHSLPSYGLENLKKLRARSTYNLKKLPTLEKLVALMEASLTYPSHCCAFANWRRQISELHPICNKSILRQEVDYMTQARGQRSSLAEDNESSYSRGFDMTYTEFDYDLCNEVVDVTCSPKPDAFNPCEDIMGYNILRVLIWFISILAITGNIIVLVILTTSQYKLTVPRFLMCNLAFADLCIGIYLLLIASVDIHTKSQYHNYAIDWQTGAGCDAAGFFTVFASELSVYTLTAITLERWHTITHAMQLDCKVQLRHAASVMVMGWIFAFAAALFPIFGISSYMKVSICLPMDIDSPLSQLYVMSLLVLNVLAFVVICGCYIHIYLTVRNPNIVSSSSDTRIAKRMAMLIFTDFLCMAPISFFAISASLKVPLITVSKAKILLVLFHPINSCANPFLYAIFTKNFRRDFFILLSKCGCYEMQAQIYRTETSSTVHNTHPRNGHCSSAPRVTSGSTYILVPLSHLAQN
